Reference: US20260209386A1 (MYTHIC THERAPEUTICS, published 2026)
Substitutions are numbered along the chain they refer to.

Legend:
[1] = target: T1, Recombinant human CCK4/PTK7 Protein (His Tag), Sino Biological 19399-H08H (human, UniProt Q13308 31-704); assay: BLI, antibody on anti-human Fc sensor
T1 construct: bought protein; not shown: His tag
T1 sequence: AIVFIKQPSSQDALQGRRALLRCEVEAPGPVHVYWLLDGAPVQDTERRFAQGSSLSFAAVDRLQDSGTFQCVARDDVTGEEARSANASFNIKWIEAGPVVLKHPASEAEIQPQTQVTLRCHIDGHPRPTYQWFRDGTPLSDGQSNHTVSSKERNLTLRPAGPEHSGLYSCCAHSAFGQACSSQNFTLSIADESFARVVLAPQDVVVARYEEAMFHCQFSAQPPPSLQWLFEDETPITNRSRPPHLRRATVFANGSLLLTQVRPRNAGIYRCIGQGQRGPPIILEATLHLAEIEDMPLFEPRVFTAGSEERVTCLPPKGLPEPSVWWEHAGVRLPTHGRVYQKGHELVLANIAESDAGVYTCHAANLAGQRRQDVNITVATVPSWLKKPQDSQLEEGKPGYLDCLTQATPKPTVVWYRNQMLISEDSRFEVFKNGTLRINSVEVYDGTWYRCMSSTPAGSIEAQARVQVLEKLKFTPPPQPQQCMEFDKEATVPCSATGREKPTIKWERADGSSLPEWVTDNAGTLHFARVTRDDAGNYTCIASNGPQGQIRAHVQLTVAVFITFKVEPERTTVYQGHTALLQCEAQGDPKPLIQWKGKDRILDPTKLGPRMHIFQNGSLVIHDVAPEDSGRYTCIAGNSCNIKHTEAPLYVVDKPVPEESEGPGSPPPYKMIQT

[2] = target: T2, Human PTK7 Protein, His Tag (Acro Biosystems) (human, UniProt Q13308 31-704); assay: BLI, antibody on anti-human Fc sensor, 50 nM PTK7 at pH 7.4, dissociation at pH 7.4 or 5.4; 1 = pH dependent binding relative to parent
T2 construct: Bought recombinant protein; also called CCK4; tyrosine-protein kinase-like 7; not shown: His tag
T2 sequence: T1 sequence

[3] = target: T3, Human PTK7 Protein, His Tag, Acro Biosystems (human, UniProt Q13308 31-704); assay: BLI, anti-human Fc capture, 50 nM PTK7; 1 = pH dependent binding relative to parent
T3 construct: Bought recombinant protein; also called CCK4; not shown: His tag
T3 sequence: T1 sequence

B1: MYT7963 (antibody, V domains shown)
VH: EVQLVQSGGGLVHPGGSLRLSCAGSGFTHSTYLMYWVRQAPGKTLEWVSAIGSGGDTYYADSVKGRFTISRDNAKNSLYLQMNSLRAEDMAVYYCARGLGYWGQGTLVTVSS
VL: not shown
notes: IgG
B1: no binding (tested: 50 nM PTK7) [1].

B2: MYT8003 (antibody, V domains shown)
VH: B1 VH with H29F
VL: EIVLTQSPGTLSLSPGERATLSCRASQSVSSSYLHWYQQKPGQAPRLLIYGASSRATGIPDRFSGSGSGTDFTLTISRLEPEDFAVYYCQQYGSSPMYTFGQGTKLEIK
notes: IgG
B2: no binding (tested: 50 nM PTK7) [1].

B3: MYT7972 (antibody, V domains shown)
VH: B1 VH with H29F, G52H
VL: not shown
notes: IgG
B3: no binding (tested: 50 nM PTK7) [1].

B4: MYT8019 (antibody, V domains shown)
VH: B1 VH with H29F
VL: not shown
notes: IgG
B4: no binding (tested: 50 nM PTK7) [1].

B5: MYT7973 (antibody, V domains shown)
VH: B1 VH with H29F, S53H
VL: not shown
notes: IgG
B5: no binding (tested: 50 nM PTK7) [1].

B6: MYT7970 (antibody, V domains shown)
VH: B1 VH with H29F, A50H
VL: not shown
notes: IgG
B6: no binding (tested: 50 nM PTK7) [1].

B7: MYT7988 (antibody, V domains shown)
VH: B1 VH with H29F, G98H
VL: not shown
notes: IgG
B7: no binding (tested: 50 nM PTK7) [1].

B8: MYT7989 (antibody, V domains shown)
VH: B1 VH with H29F, L99H
VL: not shown
notes: IgG
B8: no binding (tested: 50 nM PTK7) [1].

B9: MYT7987 (antibody, V domains shown)
VH: B1 VH with H29F, R97H
VL: not shown
notes: IgG
B9: no binding (tested: 50 nM PTK7) [1].

B10: MYT8017 (antibody, V domains shown)
VH: B1 VH with H29F
VL: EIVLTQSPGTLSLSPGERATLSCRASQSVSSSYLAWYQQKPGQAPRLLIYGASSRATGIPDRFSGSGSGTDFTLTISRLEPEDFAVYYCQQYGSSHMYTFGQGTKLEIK
notes: IgG
B10: no binding (tested: 50 nM PTK7) [1].

B11: MYT8016 (antibody, V domains shown)
VH: B1 VH with H29F
VL: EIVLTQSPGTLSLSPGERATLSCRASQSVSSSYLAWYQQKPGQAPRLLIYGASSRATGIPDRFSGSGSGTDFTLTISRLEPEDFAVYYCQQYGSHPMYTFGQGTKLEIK
notes: IgG
B11: no binding (tested: 50 nM PTK7) [1].

B12: MYT7986 (antibody, V domains shown)
VH: B1 VH with H29F, A96H
VL: not shown
notes: IgG
B12: no binding (tested: 50 nM PTK7) [1].

B13: MYT7858 (antibody, V domains shown)
VH: QVQLVQSGPEVKKPGASVKVSCKASGYTFTDYAVHWVRQAPGKRLEWIGVISTYNDYTYNNQDFKGRVTMTRDTSASTAYMELSRLRSEDTAVYYCARGNSYFYALDYWGQGTSVTVSS
VL: EIVLTQSPATLSLSPGERATLSCRAHESVDSYGKSFMAWYQQKPGQAPRLLIYRASNLESGIPARFSGSGSGTDFTLTISSLEPEDFAVYYCQQSNEDPWTFGGGTKLEIK
notes: IgG
B13: no binding (tested: 50 nM PTK7) [1].

B14: MYT7862 (antibody, V domains shown)
VH: B13 VH
VL: B13 VL with H26S, S31H, A38H, S60H
notes: IgG
B14: no binding (tested: 50 nM PTK7) [1].

B15: MYT11354 (antibody, V domains shown)
VH: EVQLVESGGGLVQPGGSLRLSCTASGIDLSNYAVIWVRQAPGKGLEWVGIIYTYHTTYYANWAKGRFTISRDTSKNTVYLQMNSLRAEDTAVYFCARSFSDISDLIKLWGQGTLVTVSS
VL: EIVMTQSPSTLSASVGDRVIITCQASQSLYNNKDLAWYQQKPGKAPKLLIYEASKLASGVPSRFSGSGSGAEFTLTISSLQPDDFATYYCLGEFSCGSGDCLAFGQGTKLTVL
notes: MYT9797 HC variant; captured via anti-human Fc
B15: binds [2].

B16: MYT11396 (antibody, V domains shown)
VH: B15 VH with H55D
VL: B15 VL with E52H
notes: MYT9797 LC variant; captured via anti-human Fc
B16: binds [2].

B17: MYT11409 (antibody, V domains shown)
VH: B15 VH with H55D
VL: B15 VL with S98H
notes: as for B16
B17: binds [2].

B18: MYT11363 (antibody, V domains shown)
VH: B15 VH with H55D, K64H
VL: B15 VL
notes: as for B15
B18: binds [2].

B19: MYT11380 (antibody, V domains shown)
VH: B15 VH with H55A
VL: B15 VL
notes: MYT9797 HC alanine variant; captured via anti-human Fc
B19: binds [2].

B20: MYT11376 (antibody, V domains shown)
VH: B15 VH with H55D, K107H
VL: B15 VL
notes: as for B15
B20: binds [2].

B21: MYT11357 (antibody, V domains shown)
VH: B15 VH with H55D, Y58H
VL: B15 VL
notes: as for B15
B21: binds [2].

B22: MYT11398 (antibody, V domains shown)
VH: B15 VH with H55D
VL: B15 VL with S54H
notes: as for B16
B22: binds [2].

B23: MYT11392 (antibody, V domains shown)
VH: B15 VH with H55D
VL: B15 VL with K33H
notes: as for B16
B23: binds [2].

B24: MYT11394 (antibody, V domains shown)
VH: B15 VH with H55D
VL: B15 VL with L35H
notes: as for B16
B24: binds [2].

B25: MYT11355 (antibody, V domains shown)
VH: B15 VH with H55D, T56H
VL: B15 VL
notes: as for B15
B25: binds [2].

B26: MYT11393 (antibody, V domains shown)
VH: B15 VH with H55D
VL: B15 VL with D34H
notes: as for B16
B26: binds [2].

B27: MYT11410 (antibody, V domains shown)
VH: B15 VH with H55D
VL: B15 VL with G99H
notes: as for B16
B27: binds [2].

B28: MYT11356 (antibody, V domains shown)
VH: B15 VH with H55D, T57H
VL: B15 VL
notes: as for B15
B28: binds [2].

B29: MYT11417 (antibody, V domains shown)
VH: B15 VH with H55D
VL: B15 VL with D34A
notes: MYT9797 LC alanine variant; captured via anti-human Fc
B29: binds [2].

B30: MYT11369 (antibody, V domains shown)
VH: B15 VH with H55D, S100H
VL: B15 VL
notes: as for B15
B30: binds [2].

B31: MYT11390 (antibody, V domains shown)
VH: B15 VH with H55D
VL: B15 VL with N31H
notes: as for B16
B31: binds [2].

B32: MYT11258 (antibody, V domains shown)
VH: EVQLVESGGGLVQPGGSLRLSCTASGIDLHRYSMGWVRQAPGKGLEWVGIISYGGSTYYASWAKGRFTISRDTSKNTVYLQMNSLRAEDTAVYFCARVGYPGYSGYGYAFDAFDPWGQGTLVTVSS
VL: EIVMTQSPSTLSASVGDRVIITCQSSKSVYNDNWLSWYQQKPGKAPKLLIYGASTLASGVPSRFSGSGSGAEFTLTISSLQPDDFATYYCAGGYSSSSDNGFGQGTKLTVL
notes: MYT9792 variant, His at VH 30 (H1 05)
B32: binds [3].

B33: MYT11272 (antibody, V domains shown)
VH: B32 VH with H30S, Y58H
VL: B32 VL
notes: MYT9792 variant, His at VH 58 (H2 09)
B33: binds [3].

B34: MYT11279 (antibody, V domains shown)
VH: B32 VH with H30S, G65H
VL: B32 VL
notes: MYT9792 variant, His at VH 65 (H2 16)
B34: binds [3].

B35: MYT11285 (antibody, V domains shown)
VH: B32 VH with H30S, P101H
VL: B32 VL
notes: MYT9792 variant, His at VH 101 (H3 06)
B35: binds [3].

B36: MYT11267 (antibody, V domains shown)
VH: B32 VH with H30S, Y53H
VL: B32 VL
notes: MYT9792 variant, His at VH 53 (H2 04)
B36: binds [3].

B37: MYT11263 (antibody, V domains shown)
VH: B32 VH with H30S, G35H
VL: B32 VL
notes: MYT9792 variant, His at VH 35 (H1 10)
B37: binds [3].
